The target in the assay is TGFβ type I receptor (TβR-I) on human cells (human) (UniProt P36897). The assay is described as follows: cell-based or functional assay.
Sequence of TGFβ type I receptor (TβR-I) on human cells (human) (P36897 34-503): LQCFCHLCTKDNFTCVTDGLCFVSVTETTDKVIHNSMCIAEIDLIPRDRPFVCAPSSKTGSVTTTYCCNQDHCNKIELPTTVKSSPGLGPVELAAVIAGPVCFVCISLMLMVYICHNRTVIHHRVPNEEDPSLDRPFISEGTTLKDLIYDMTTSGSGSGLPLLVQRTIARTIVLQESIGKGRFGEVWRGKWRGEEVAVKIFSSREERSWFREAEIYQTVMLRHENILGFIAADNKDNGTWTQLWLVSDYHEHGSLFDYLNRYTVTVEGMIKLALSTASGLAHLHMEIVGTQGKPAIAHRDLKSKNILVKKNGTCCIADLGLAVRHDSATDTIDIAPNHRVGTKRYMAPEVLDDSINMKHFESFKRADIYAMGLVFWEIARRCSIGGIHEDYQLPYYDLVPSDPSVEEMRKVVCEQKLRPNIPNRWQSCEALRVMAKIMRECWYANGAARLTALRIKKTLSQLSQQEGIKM

“TGFβ (exogenous, added to human keratinocyte cultures) (ligand)” yielded a growth inhibition of human keratinocytes of 5 pM.

Values taken from patent US20090074790A1, “Methods for measuring transforming growth factor beta (TGF-beta) receptor signaling activity and uses thereof” (priority 2004, published 2009).
